Data on one molecule can be found in patent US20250320296A1 (published 2025).

The target of one assay is T1, human PD-L1 on CHO cells (human, UniProt Q9NZQ7 19-290).
T1 construct: also called CHO-PD-L1 cells
The assay is described as follows: FIG. 4: Octet avidity curves and FACS on CHO-PD-L1 cells. On the procedure:
(§1) Antibody Activity. Varying concentrations of PD-L1 antibodies, with human IgG1 backbones, were added to CHO cells expressing either human or murine PD-L1 (CHO-PD-L1 cells). Binding was detected by addition of anti-human IgG1 secondary antibody conjugated to phycoerythrin. FACS analysis was performed, detecting phycoerythrin to determine fluorescence activity at a variety of antibody concentrations. EC50 was calculated using GraphPad Prism® software.

Assay [1] addresses T2, murine PD-L1 on CHO cells (murine, UniProt Q9EP73 19-290).
T2 construct: whole, on cells; also called CHO-PD-L1 cells
The assay is described as follows: FIG. 4 legend: Octet avidity curves and FACS on CHO-PD-L1 cells. On the procedure:
as §1

T1 sequence (Q9NZQ7 19-290 limits assumed): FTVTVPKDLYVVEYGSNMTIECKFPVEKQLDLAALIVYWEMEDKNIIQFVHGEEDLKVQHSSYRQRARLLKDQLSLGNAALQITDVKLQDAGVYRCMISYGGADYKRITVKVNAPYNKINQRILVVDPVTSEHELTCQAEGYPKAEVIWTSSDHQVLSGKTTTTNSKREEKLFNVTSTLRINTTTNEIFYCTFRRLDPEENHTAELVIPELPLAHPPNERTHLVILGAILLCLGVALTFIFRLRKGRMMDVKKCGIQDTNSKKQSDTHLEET
T2 sequence (Q9EP73 19-290): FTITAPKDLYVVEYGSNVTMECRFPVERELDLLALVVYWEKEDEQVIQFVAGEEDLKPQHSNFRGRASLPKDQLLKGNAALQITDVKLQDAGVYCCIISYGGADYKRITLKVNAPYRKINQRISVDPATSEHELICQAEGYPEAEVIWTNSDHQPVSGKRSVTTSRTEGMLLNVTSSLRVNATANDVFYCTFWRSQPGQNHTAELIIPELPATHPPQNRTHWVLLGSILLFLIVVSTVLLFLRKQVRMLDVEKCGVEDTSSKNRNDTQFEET

B1: ADI-20799 (antibody, human IgG1, V domains shown)
VH: QVQLVQSGAEVKKPGASVKVSCKASGYTFTGVYMHWVRQAPGQGLEWMGGIFPIGGTANYAQKFQGRVTITADESTSTAYMELSSLRSEDTAVYYCARDRTSGALYWGQGTLVTVSS
VL: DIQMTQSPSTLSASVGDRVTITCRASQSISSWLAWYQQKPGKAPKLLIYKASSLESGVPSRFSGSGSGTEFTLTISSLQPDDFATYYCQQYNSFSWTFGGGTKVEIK
As for B1, the binding result (with human PD-L1 on CHO cells; in assay [1]) was “binds” each time.
